In US20260242478A1 (published 2026):

B1: Phage-3664 (peptide-180 library clone) (peptide)
peptide: PVPYCRPIWMCQGL
B2: Phage-3666 (peptide-180 library clone) (peptide)
peptide: EVRRCEPSWMCSVV
B3: Phage-3667 (peptide-180 library clone) (peptide)
peptide: YIQACKPRWMCNGF
B4: Phage-3661 (peptide-180 library clone) (peptide)
peptide: VAIACTPMWMCTGF
B5: Phage-3669 (peptide-180 library clone) (peptide)
peptide: GHVYCEPQWMCYGF
B6: Phage-3665 (peptide-180 library clone) (peptide)
peptide: ESRFCVPAWMCAAV
B7: Phage-3662 (peptide-180 library clone) (peptide)
peptide: HVAACVPSWMCTGF
B8: Phage-3659 (peptide-180 library clone) (peptide)
peptide: DHKLCKPEWMCAGL
B9: Phage-3668 (peptide-180 library clone) (peptide)
peptide: LQVLCVPDWMCAGF
B10: Phage-3660 (peptide-180 library clone) (peptide)
peptide: MVSHCVPLWMCAGF
B11: Phage-3663 (peptide-180 library clone) (peptide)
peptide: EGPLCKPAWMCRGF
B12: Phage-3614, clonal phage showing a Peptide-180 library peptide (peptide)
peptide: GWEWCIPEWMCTGL
notes: Tested as crude clonal phage supernatant; not shown: pIII filament protein of the bacteriophage, fused to the peptide
B13: Phage-3617, clonal phage showing a Peptide-180 library peptide (peptide)
peptide: DFIRCSPIWMCDGF
notes: as for B12
B14: Phage-3611, clonal phage showing a Peptide-180 library peptide (peptide)
peptide: VDRLCMPIWMCEGL
notes: as for B12
B15: Phage-3615, clonal phage showing a Peptide-180 library peptide (peptide)
peptide: LDRLCLPQWMCVGM
notes: as for B12
B16: Phage-3616, clonal phage showing a Peptide-180 library peptide (peptide)
peptide: ESRLCVPMWMCSGF
notes: as for B12
B17: Phage-3612, clonal phage showing a Peptide-180 library peptide (peptide)
peptide: DPVMCMPRWMCDGF
notes: as for B12
B18: Phage-3613, clonal phage showing a Peptide-180 library peptide (peptide)
peptide: ETMRCEPSWMCIGL
notes: as for B12
B19: Phage-3656 (Peptide-180 library clone) (peptide)
peptide: ETSWCTPSWMCTGF
B20: Phage-3652 (Peptide-180 library clone) (peptide)
peptide: PSAVCVPTWMCSGF
B21: Phage-3655 (Peptide-180 library clone) (peptide)
peptide: VERMCEPLWMCAGL
B22: Phage-3647 (Peptide-180 library clone) (peptide)
peptide: MVPVCIPLWMCSGF
B23: Phage-3653 (Peptide-180 library clone) (peptide)
peptide: VQILCRPQWMCEGL
B24: Phage-3657 (Peptide-180 library clone) (peptide)
peptide: SMIYCIPSWMCEGM
B25: Phage-3646 (Peptide-180 library clone) (peptide)
peptide: TAVMCIPYWMCGGM
B26: Phage-3651 (Peptide-180 library clone) (peptide)
peptide: SVVMCVPEWMCQGF
B27: Phage-3658 (Peptide-180 library clone) (peptide)
peptide: IDRHCTPSWMCYGF
B28: Phage-3649 (Peptide-180 library clone) (peptide)
peptide: LQTLCIPPWMCMGF
B29: Phage-3645 (Peptide-180 library clone) (peptide)
peptide: VDVRCMPLWMCSGF
B30: Phage-3654 (Peptide-180 library clone) (peptide)
peptide: LALACVPPWMCQGL
B31: Phage-3650 (Peptide-180 library clone) (peptide)
peptide: EQVLCRPAWMCLGF
B32: Phage-3648 (Peptide-180 library clone) (peptide)
peptide: PLVLCIPQWMCQAM
B33: Phage-3643 (peptide)
peptide: ADRVCKPAWMCDLF
B34: Phage-3632 (peptide)
peptide: ELILCRPSWMCTGL
B35: Phage-3636 (peptide)
peptide: VEPLCRPTWMCMSL
B36: Phage-3644 (peptide)
peptide: PNILCKPQWMCAGF
B37: Phage-3639 (peptide)
peptide: YPPLCVPMWMCNGF
B38: Phage-3640 (peptide)
peptide: FPAMCKPSWMCTGF
B39: Phage-3641 (peptide)
peptide: SNMVCIPSWMCNGF
B40: Phage-3638 (peptide)
peptide: VHQLCIPVWMCSGF
B41: Phage-3637 (peptide)
peptide: AEVKCIPTWMCTGF
B42: Phage-3634 (peptide)
peptide: GTTWCVPTWMCEGL
B43: Phage-3635 (peptide)
peptide: EVAMCKPLWMCSGF
B44: Phage-3631 (peptide)
peptide: LVNYCIPPWMCAGF
B45: Phage-3633 (peptide)
peptide: SHALCRPAWMCMGL
B46: Phage-3642 (peptide)
peptide: VTMKCQPMWMCQGL

Biological target: T1, PSMA Fab (006 PSMA Fab) (biotinylated (site not stated))
T1 construct: also called Anti-PSMA Fab
Assay: clonal phage ELISA on biotinylated PSMA Fab captured on neutravidin plates, anti-M13 HRP detection;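 note: crude clonal phage supernatants tested, before phage were added, wells were pretreated with PSMA antigen in blocking buffer or with blocking buffer only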

| Binder | Phage binding ELISA signal, Anti-PSMA Fab |
| --- | --- |
| B1 | 1.49 |
| B2 | 1.49 |
| B3 | 1.49 |
| B4 | 1.49 |
| B5 | 1.49 |
| B6 | 1.49 |
| B7 | 1.49 |
| B8 | 1.5 |
| B9 | 1.49 |
| B10 | 1.49 |
| B11 | 1.49 |

Biological target: T2, PSMA Fab (006 PSMA Fab), biotinylated (biotinylated (site and chain not stated))
T2 construct: also called Anti-PSMA Fab; anti-PSMA Fab
Assay: phage ELISA; biotinylated PSMA Fab on neutravidin plate, blocking buffer alone, bound phage detected with HRP anti-M13 antibody

| Binder | Phage binding ELISA signal, Anti-PSMA Fab |
| --- | --- |
| B12 | 1.57 |
| B13 | 1.57 |
| B14 | 1.58 |
| B15 | 1.57 |
| B16 | 1.57 |
| B17 | 1.57 |
| B18 | 1.57 |

Biological target: T3, PSMA Fab (006 PSMA Fab)
T3 construct: also called Anti-PSMA Fab; anti-PSMA Fab
Assay: clonal phage ELISA on biotinylated PSMA Fab captured on neutravidin, blocking buffer alone, anti-M13 HRP detection;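 note: clonal phage were tested as crude supernatants, and the signal reflects phage still bound to the wells after washing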
Procedure: (§1) Clonal phage were harvested as crude supernatants and screened via standard ELISAs. […] Prior to the addition of clonal phage. wells were incubated with blocking buffer and PSMA antigen or blocking buffer alone. Without washing or aspirating, clonal phage supernatants were then added to the wells and incubated for a short time. Wells were then washed followed by detection of bound phage using a horse radish conjugated anti-M13 antibody.

| Binder | phage binding ELISA signal on anti-PSMA Fab |
| --- | --- |
| B19 | 1.5 |
| B20 | 1.5 |
| B21 | 1.5 |
| B22 | 1.51 |
| B23 | 1.5 |
| B24 | 1.5 |
| B25 | 1.52 |
| B26 | 1.5 |
| B27 | 1.5 |
| B28 | 1.5 |
| B29 | 1.52 |
| B30 | 1.5 |
| B31 | 1.5 |
| B32 | 1.51 |

Biological target: T2, PSMA Fab (006 PSMA Fab), biotinylated
Assay: phage ELISA; biotinylated PSMA Fab on neutravidin plate, wells first incubated with PSMA antigen as competitor, HRP anti-M13 detection
Procedure: as §1

| Binder | Phage binding ELISA signal, Anti-PSMA Fab with PSMA antigen |
| --- | --- |
| B12 | 0.0625 |
| B13 | 0.0807 |
| B14 | 0.0788 |
| B15 | 0.0704 |
| B16 | 0.0707 |
| B17 | 0.0916 |
| B18 | 0.0724 |

Biological target: T3, PSMA Fab (006 PSMA Fab)
Assay: clonal phage ELISA on captured PSMA Fab, wells pre-incubated with PSMA antigen as competitor
Procedure: as §1

| Binder | phage binding ELISA signal on anti-PSMA Fab in presence of PSMA |
| --- | --- |
| B19 | 0.0752 |
| B20 | 0.0815 |
| B21 | 0.0832 |
| B22 | 0.0744 |
| B23 | 0.0669 |
| B24 | 0.0844 |
| B25 | 0.104 |
| B26 | 0.0734 |
| B27 | 0.0562 |
| B28 | 0.0685 |
| B29 | 0.0628 |
| B30 | 0.0897 |
| B31 | 0.0974 |
| B32 | 0.0663 |

Biological target: T1, PSMA Fab (006 PSMA Fab)
Assay: as above
Procedure: as §1

| Binder | Phage binding ELISA signal, Anti-PSMA Fab in presence of PSMA |
| --- | --- |
| B1 | 0.0736 |
| B2 | 0.0749 |
| B3 | 0.0874 |
| B4 | 0.113 |
| B5 | 0.0791 |
| B6 | 0.089 |
| B7 | 0.0842 |
| B8 | 0.0672 |
| B9 | 0.091 |
| B10 | 0.0616 |
| B11 | 0.0963 |

Biological target: T4, PSMA Fab (SEQ ID NOs: 19, 20) (biotinylated (site not stated))
T4 construct: In the phage ELISA the biotinylated PSMA Fab was captured on neutravidin coated plates; also called Anti-PSMA Fab; 006 PSMA Fab
Assay: clonal phage ELISA on captured biotinylated PSMA Fab, anti-M13-HRP detection, competitor: PSMA antigen pre-incubated

| Binder | phage binding ELISA signal |
| --- | --- |
| B33 | 0.0527 |
| B34 | 0.0672 |
| B35 | 0.0766 |
| B36 | 0.0825 |
| B37 | 0.107 |
| B38 | 0.082 |
| B39 | 0.0754 |
| B40 | 0.0996 |
| B41 | 0.079 |
| B42 | 0.077 |
| B43 | 0.069 |
| B44 | 0.093 |
| B45 | 0.0783 |
| B46 | 0.0738 |

Biological target: T4, PSMA Fab (SEQ ID NOs: 19, 20)
Assay: clonal phage ELISA on captured biotinylated PSMA Fab, anti-M13-HRP detection, no PSMA antigen
Procedure: as §1

| Binder | phage binding ELISA signal |
| --- | --- |
| B33 | 1.52 |
| B34 | 1.54 |
| B35 | 1.53 |
| B36 | 1.52 |
| B37 | 1.53 |
| B38 | 1.53 |
| B39 | 1.53 |
| B40 | 1.53 |
| B41 | 1.53 |
| B42 | 1.54 |
| B43 | 1.53 |
| B44 | 1.54 |
| B45 | 1.54 |
| B46 | 1.52 |
